For test [1], the target named is HIV-1 BG505 envelope glycoprotein (Env) (HIV-1 (isolate BG505)) (UniProt Q2N0S6).
Test [2] deals with HIV-1 HXB2 envelope glycoprotein (Env) (HIV-1 (isolate HXB2)) (UniProt P04578).
The target of test [3] is HIV-1 YU2 envelope glycoprotein (Env) (HIV-1 (isolate YU2)) (UniProt P35961).
In test [4] the target is HIV-1 ZM651 envelope glycoprotein (Env) (HIV-1 (isolate ZM651)).
The target of test [5] is HIV-1 HXB2 envelope glycoprotein (Env) (HIV-1 (isolate HXB2)) (UniProt P04578). The source holds these as a separate data set.
Test [6] deals with HIV-1 YU2 envelope glycoprotein (Env) (HIV-1 (isolate YU2)) (UniProt P35961). The source holds these as a separate data set.
The target in test [7] is HIV-1 HXB2 envelope glycoprotein (Env) (HIV-1 (isolate HXB2)) (UniProt P04578). The source holds these as a separate data set.

UniProt P35961, sequence (P35961 32-843): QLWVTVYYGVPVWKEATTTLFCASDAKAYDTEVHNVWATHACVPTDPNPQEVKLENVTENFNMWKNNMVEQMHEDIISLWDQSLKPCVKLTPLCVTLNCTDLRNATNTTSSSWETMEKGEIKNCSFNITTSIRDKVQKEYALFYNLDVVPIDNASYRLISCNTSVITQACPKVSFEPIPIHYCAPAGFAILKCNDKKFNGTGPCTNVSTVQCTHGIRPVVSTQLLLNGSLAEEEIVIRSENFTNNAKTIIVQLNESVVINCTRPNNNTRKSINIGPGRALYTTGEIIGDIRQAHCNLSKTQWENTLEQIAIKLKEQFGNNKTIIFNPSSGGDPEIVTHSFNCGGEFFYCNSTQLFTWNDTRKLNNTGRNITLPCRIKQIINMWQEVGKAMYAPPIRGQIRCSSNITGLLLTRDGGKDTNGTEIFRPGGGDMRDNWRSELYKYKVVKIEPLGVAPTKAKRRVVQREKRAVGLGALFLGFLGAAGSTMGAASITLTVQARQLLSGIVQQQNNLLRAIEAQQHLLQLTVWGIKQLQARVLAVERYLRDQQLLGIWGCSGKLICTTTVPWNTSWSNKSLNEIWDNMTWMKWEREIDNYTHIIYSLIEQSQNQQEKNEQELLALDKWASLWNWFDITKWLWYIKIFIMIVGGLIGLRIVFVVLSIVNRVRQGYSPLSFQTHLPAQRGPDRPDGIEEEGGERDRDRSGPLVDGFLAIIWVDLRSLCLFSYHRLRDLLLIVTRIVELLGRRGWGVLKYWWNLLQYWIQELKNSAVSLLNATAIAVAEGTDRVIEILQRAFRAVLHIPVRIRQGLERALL

With eCD4-Ig^mim2 (Fc fusion), the IC50 of neutralisation of HIV-1 pseudovirus (TZM-bl assay) was determined as 0.258 µg/mL in test [1], 0.0008 µg/mL in test [2], 0.003 µg/mL in test [3] and 0.468 µg/mL in test [4]. The IC90 of neutralisation of HIV-1 pseudovirus (TZM-bl assay) in test [1] was found to be 0.83 µg/mL; in test [2], 0.002 µg/mL; in test [3], 0.009 µg/mL; in test [4], 1.65 µg/mL. For the same substance, in test [5], the Env-mediated cell-cell fusion (SRFA), CHO-DSP1 cells with HIV-1 HXB2 Env and HeLa.CD4-DSP2 cells, fusion level at 1 μg/mL (Fig 1D; concentration dependent over 10-1000 ng/mL, Fig 3A) (% of untreated control) is 18. The same substance came in with an Env-mediated cell-cell fusion (SRFA), fusion level at 260 nM (% of untreated control) in test [5] of 2. Moreover, the Env-mediated cell-cell fusion (SRFA), CHO-DSP1 cells with HIV-1 YU2 Env and HeLa.CD4-DSP2 cells with CCR5, fusion level at 260 nM (% of untreated control) in test [6] stood at 30.

For VRC03 (antibody), in test [7], the Env-mediated cell-cell fusion (SRFA), fusion level with 10 μg/mL antibody; the pair said to be blocked is CD4 (on HeLa.CD4-DSP2 cells) with gp120 was 53 % of control.

For the origin of these results see publication PMC6201953.
